{
  "source": "patent US20230002480A1",
  "experiment_in_all_cases": "cell-based or functional assay",
  "key": {"[1]": {"target": "HIV-1 Env of pseudovirus C4118.c09 (HIV-1)"}, "[2]": {"target": "HIV-1 Env of pseudovirus X1632_S2_B10 (HIV-1)"}, "[3]": {"target": "HIV-1 Env of pseudovirus C3347.c11 (HIV-1)"}, "[4]": {"target": "HIV-1 Env of pseudovirus BJOX025000.01.1 (HIV-1)"}, "[5]": {"target": "HIV-1 Env of pseudovirus CNE5 (HIV-1)"}, "[6]": {"target": "HIV-1 Env of pseudovirus P0402_c2_11 (HIV-1)"}, "[7]": {"target": "HIV-1 Env of pseudovirus 231966.c02 (HIV-1)"}, "[8]": {"target": "HIV-1 Env of pseudovirus 6480.v4.c25 (HIV-1)"}, "[9]": {"target": "HIV-1 Env of pseudovirus 6952.v1.c20 (HIV-1)"}, "[10]": {"target": "HIV-1 Env of pseudovirus T251-18 (HIV-1)"}, "[11]": {"target": "HIV-1 Env of pseudovirus 191955_A11 (HIV-1)"}, "[12]": {"target": "HIV-1 Env of pseudovirus X1193_c1 (HIV-1)"}, "[13]": {"target": "HIV-1 Env of pseudovirus BJOX010000.06.2 (HIV-1)"}, "[14]": {"target": "HIV-1 Env of pseudovirus C1080.c03 (HIV-1)"}, "[15]": {"target": "HIV-1 Env of pseudovirus 0260.v5.c36 (HIV-1)"}, "[16]": {"target": "HIV-1 Env of pseudovirus R3265.c06 (HIV-1)"}, "[17]": {"target": "HIV-1 Env of pseudovirus T257-31 (HIV-1)"}, "[18]": {"target": "HIV-1 Env of pseudovirus 6540.v4.c1 (HIV-1)"}},
  "data": [
    {"substance": "N49P7.2 (antibody)", "values": [
      {"measurement": "IC50", "setting": "[1]", "result": 0.079, "unit": "µg/mL"},
      {"measurement": "IC80", "setting": "[1]", "result": 0.292, "unit": "µg/mL"},
      {"measurement": "MPI", "setting": "[1]", "result": 100},
      {"measurement": "IC50", "setting": "[2]", "result": "> 50", "unit": "µg/mL"},
      {"measurement": "IC80", "setting": "[2]", "result": "> 50", "unit": "µg/mL"},
      {"measurement": "MPI", "setting": "[2]", "result": 22},
      {"measurement": "IC50", "setting": "[3]", "result": 0.047, "unit": "µg/mL"},
      {"measurement": "IC80", "setting": "[3]", "result": 0.154, "unit": "µg/mL"},
      {"measurement": "MPI", "setting": "[3]", "result": 100},
      {"measurement": "IC50", "setting": "[4]", "result": 0.102, "unit": "µg/mL"},
      {"measurement": "IC80", "setting": "[4]", "result": 0.831, "unit": "µg/mL"},
      {"measurement": "MPI", "setting": "[4]", "result": 100},
      {"measurement": "IC50", "setting": "[5]", "result": 0.206, "unit": "µg/mL"},
      {"measurement": "IC80", "setting": "[5]", "result": 0.893, "unit": "µg/mL"},
      {"measurement": "MPI", "setting": "[5]", "result": 100},
      {"measurement": "IC50", "setting": "[6]", "result": 0.106, "unit": "µg/mL"},
      {"measurement": "IC80", "setting": "[6]", "result": 0.4, "unit": "µg/mL"},
      {"measurement": "MPI", "setting": "[6]", "result": 100},
      {"measurement": "IC50", "setting": "[7]", "result": 0.233, "unit": "µg/mL"},
      {"measurement": "IC80", "setting": "[7]", "result": 1.11, "unit": "µg/mL"},
      {"measurement": "MPI", "setting": "[7]", "result": 100},
      {"measurement": "IC50", "setting": "[8]", "result": 0.098, "unit": "µg/mL"},
      {"measurement": "IC80", "setting": "[8]", "result": 0.371, "unit": "µg/mL"},
      {"measurement": "MPI", "setting": "[8]", "result": 100},
      {"measurement": "IC50", "setting": "[9]", "result": "> 50", "unit": "µg/mL"},
      {"measurement": "IC80", "setting": "[9]", "result": "> 50", "unit": "µg/mL"},
      {"measurement": "MPI", "setting": "[9]", "result": 0},
      {"measurement": "IC50", "setting": "[10]", "result": 0.222, "unit": "µg/mL"},
      {"measurement": "IC80", "setting": "[10]", "result": 0.741, "unit": "µg/mL"},
      {"measurement": "MPI", "setting": "[10]", "result": 100},
      {"measurement": "IC50", "setting": "[11]", "result": 44.5, "unit": "µg/mL"},
      {"measurement": "IC80", "setting": "[11]", "result": "> 50", "unit": "µg/mL"},
      {"measurement": "MPI", "setting": "[11]", "result": 56},
      {"measurement": "IC50", "setting": "[12]", "result": 0.014, "unit": "µg/mL"},
      {"measurement": "IC80", "setting": "[12]", "result": 0.101, "unit": "µg/mL"},
      {"measurement": "MPI", "setting": "[12]", "result": 100},
      {"measurement": "IC50", "setting": "[13]", "result": 0.267, "unit": "µg/mL"},
      {"measurement": "IC80", "setting": "[13]", "result": 1.11, "unit": "µg/mL"},
      {"measurement": "MPI", "setting": "[13]", "result": 100},
      {"measurement": "IC50", "setting": "[14]", "result": 0.279, "unit": "µg/mL"},
      {"measurement": "IC80", "setting": "[14]", "result": 1.76, "unit": "µg/mL"},
      {"measurement": "MPI", "setting": "[14]", "result": 100},
      {"measurement": "IC50", "setting": "[15]", "result": 0.644, "unit": "µg/mL"},
      {"measurement": "IC80", "setting": "[15]", "result": 1.8, "unit": "µg/mL"},
      {"measurement": "MPI", "setting": "[15]", "result": 100},
      {"measurement": "IC50", "setting": "[16]", "result": 0.153, "unit": "µg/mL"},
      {"measurement": "IC80", "setting": "[16]", "result": 0.985, "unit": "µg/mL"},
      {"measurement": "MPI", "setting": "[16]", "result": 100},
      {"measurement": "IC50", "setting": "[17]", "result": 0.627, "unit": "µg/mL"},
      {"measurement": "IC80", "setting": "[17]", "result": 1.79, "unit": "µg/mL"},
      {"measurement": "MPI", "setting": "[17]", "result": 100},
      {"measurement": "IC50", "setting": "[18]", "result": "> 50", "unit": "µg/mL"},
      {"measurement": "IC80", "setting": "[18]", "result": "> 50", "unit": "µg/mL"},
      {"measurement": "MPI", "setting": "[18]", "result": 33}
    ]},
    {"substance": "N49P18.1 (antibody)", "values": [
      {"measurement": "IC50", "setting": "[1]", "result": 8.63, "unit": "µg/mL"},
      {"measurement": "IC80", "setting": "[1]", "result": 23.2, "unit": "µg/mL"},
      {"measurement": "MPI", "setting": "[1]", "result": 93},
      {"measurement": "IC50", "setting": "[2]", "result": "> 50", "unit": "µg/mL"},
      {"measurement": "IC80", "setting": "[2]", "result": "> 50", "unit": "µg/mL"},
      {"measurement": "MPI", "setting": "[2]", "result": 19},
      {"measurement": "IC50", "setting": "[3]", "result": 4.2, "unit": "µg/mL"},
      {"measurement": "IC80", "setting": "[3]", "result": 14.3, "unit": "µg/mL"},
      {"measurement": "MPI", "setting": "[3]", "result": 99},
      {"measurement": "IC50", "setting": "[4]", "result": 7.67, "unit": "µg/mL"},
      {"measurement": "IC80", "setting": "[4]", "result": 39.1, "unit": "µg/mL"},
      {"measurement": "MPI", "setting": "[4]", "result": 85},
      {"measurement": "IC50", "setting": "[5]", "result": 19.5, "unit": "µg/mL"},
      {"measurement": "IC80", "setting": "[5]", "result": "> 50", "unit": "µg/mL"},
      {"measurement": "MPI", "setting": "[5]", "result": 72},
      {"measurement": "IC50", "setting": "[6]", "result": 5.47, "unit": "µg/mL"},
      {"measurement": "IC80", "setting": "[6]", "result": 20.8, "unit": "µg/mL"},
      {"measurement": "MPI", "setting": "[6]", "result": 98},
      {"measurement": "IC50", "setting": "[7]", "result": 29.9, "unit": "µg/mL"},
      {"measurement": "IC80", "setting": "[7]", "result": "> 50", "unit": "µg/mL"},
      {"measurement": "MPI", "setting": "[7]", "result": 67},
      {"measurement": "IC50", "setting": "[8]", "result": 2.97, "unit": "µg/mL"},
      {"measurement": "IC80", "setting": "[8]", "result": 17.3, "unit": "µg/mL"},
      {"measurement": "MPI", "setting": "[8]", "result": 99},
      {"measurement": "IC50", "setting": "[9]", "result": "> 50", "unit": "µg/mL"},
      {"measurement": "IC80", "setting": "[9]", "result": "> 50", "unit": "µg/mL"},
      {"measurement": "MPI", "setting": "[9]", "result": 30},
      {"measurement": "IC50", "setting": "[10]", "result": 23, "unit": "µg/mL"},
      {"measurement": "IC80", "setting": "[10]", "result": "> 50", "unit": "µg/mL"},
      {"measurement": "MPI", "setting": "[10]", "result": 70},
      {"measurement": "IC50", "setting": "[11]", "result": "> 50", "unit": "µg/mL"},
      {"measurement": "IC80", "setting": "[11]", "result": "> 50", "unit": "µg/mL"},
      {"measurement": "MPI", "setting": "[11]", "result": 33},
      {"measurement": "IC50", "setting": "[12]", "result": 3.12, "unit": "µg/mL"},
      {"measurement": "IC80", "setting": "[12]", "result": 23.9, "unit": "µg/mL"},
      {"measurement": "MPI", "setting": "[12]", "result": 94},
      {"measurement": "IC50", "setting": "[13]", "result": "> 50", "unit": "µg/mL"},
      {"measurement": "IC80", "setting": "[13]", "result": "> 50", "unit": "µg/mL"},
      {"measurement": "MPI", "setting": "[13]", "result": 39},
      {"measurement": "IC50", "setting": "[14]", "result": "> 50", "unit": "µg/mL"},
      {"measurement": "IC80", "setting": "[14]", "result": "> 50", "unit": "µg/mL"},
      {"measurement": "MPI", "setting": "[14]", "result": 50},
      {"measurement": "IC50", "setting": "[15]", "result": 16.2, "unit": "µg/mL"},
      {"measurement": "IC80", "setting": "[15]", "result": 47.8, "unit": "µg/mL"},
      {"measurement": "MPI", "setting": "[15]", "result": 81},
      {"measurement": "IC50", "setting": "[16]", "result": 27.9, "unit": "µg/mL"},
      {"measurement": "IC80", "setting": "[16]", "result": "> 50", "unit": "µg/mL"},
      {"measurement": "MPI", "setting": "[16]", "result": 66},
      {"measurement": "IC50", "setting": "[17]", "result": "> 50", "unit": "µg/mL"},
      {"measurement": "IC80", "setting": "[17]", "result": "> 50", "unit": "µg/mL"},
      {"measurement": "MPI", "setting": "[17]", "result": 48},
      {"measurement": "IC50", "setting": "[18]", "result": "> 50", "unit": "µg/mL"},
      {"measurement": "IC80", "setting": "[18]", "result": "> 50", "unit": "µg/mL"},
      {"measurement": "MPI", "setting": "[18]", "result": 35}
    ]}
  ]
}
